# Biological target: protein A (UniProt P38507)
# Test: SPR
substance,measurement,value
rabbit IgG (antibody),SPR angle increase,2.1 °
